Reference: the supplement of paper PMC10567573

B1: ANKRD40 (parent)
chain: VCCCELGVNPDQVEKIRKLPNTLL
B2: PPFIA4 (parent)
chain: YAGNLHESGVHGALLALDENFDHN

Variants of: B1
Test: protein stability index of a GFP-peptide fusion (GPS, HEK-293T) (PSI 1-6); higher = more stable
Details: c terminus: a fixed tail appended
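Also: lentivirally expressed fusions sorted by FACS into six bins by GFP to DsRed ratio, PSI derived from sequencing read proportions per bin multiplied by bin number.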

Protein stability index of substitutions, site by site:
G7: Q 2.02 | T 2.85 | A 2.02 | H 2.45 | P 1.76 | D 1.96 | K 2.42 | E 2.13 | R 1.78 | C 2.6 | N 1.43 | S 1.72 | Y 1.88 | I 2.45 | L 2.3 | W 1.51 | M 1.7 | F 2.27
E14: D 1.66 | Q 1.48 | R 1.05 | H 2.08 | T 1.68 | N 1.91 | Y 2.09 | L 2.13 | K 1.48 | W 2.21 | P 2.95 | V 1.45 | S 1.45 | A 2.3 | G 1.89 | C 1.71 | M 1.53
C3: M 2.29 | W 1.81 | L 2.03 | P 1.97 | F 1.24 | H 2.18 | I 1.69 | R 2.1 | E 2.77 | G 2.19 | N 1.82 | S 2.09 | Y 2.27 | T 2.38 | V 2.53 | Q 1.96 | A 2.42 | D 2.31 | K 2.23
K15: A 1.68 | D 2.17 | E 2.81 | C 1.33
V8: K 2.2 | F 1.3 | T 1.62 | C 1.86 | Y 1.77 | P 1.79 | H 2.17 | I 1.79 | G 2.33 | D 2.37 | S 2.4 | W 1.58 | A 1.86 | L 1.34 | N 1.99 | E 2.39 | R 1.81 | Q 1.85
V13: I 1.75 | S 2.05 | Y 1.84 | M 1.67 | H 1.77 | P 2.18 | C 1.91 | G 2.5 | L 1.64 | W 2.07 | Q 2.42 | D 3.11 | E 2.78 | R 2.27 | F 1.4 | T 1.76 | K 2.25 | N 2.38 | A 1.71
D11: Q 1.63 | I 1.93 | W 1.98 | S 1.9 | C 2.01 | F 1.49 | K 1.89 | E 2.18 | M 2.41 | Y 2.55 | N 1.42 | G 2.17 | A 1.79 | T 1.69 | V 1.46 | L 1.91 | P 1.24 | R 2.63 | H 1.26
C4: Y 1.85 | K 2.22 | G 2.12 | A 1.87 | H 2.27 | R 2.43 | N 2.41 | L 1.73 | W 1.98 | F 1.83 | V 2.74 | D 3.17 | I 2.28 | T 2.76 | Q 2.72 | E 3 | M 2.16 | S 2.84
Q12: S 2.3 | Y 1.21 | T 1.76 | V 2.24 | N 1.75 | F 2.14 | G 2.07 | D 2.29 | E 2.16 | R 1.67 | M 2.03 | C 2.06 | H 1.42 | I 2.38 | L 2.52 | A 2.09 | P 1.86 | K 1.76 | W 2.29
C2: T 2.72 | I 1.62 | F 1.9 | P 3.22 | Q 3.56 | N 2.7 | V 3.24 | L 2.04 | A 2.85 | G 2.73 | H 2.65 | M 2.4 | S 2.76 | W 1.45 | Y 2.6 | D 3.2 | E 3.52 | K 2.63
N9: P 2 | G 1.96 | I 1.88 | D 2.01 | T 1.68 | Q 1.62 | V 1.75 | K 2.33 | C 1.66 | M 2.23 | S 2.3 | W 2.8 | E 1.7 | H 1.83 | A 1.47 | R 1.92 | L 1.97 | Y 1.78
P10: N 2 | H 2 | S 1.89 | F 2.23 | L 2.17 | W 1.88 | G 2.17 | K 2.02 | T 1.98 | A 2.14 | Q 2.02 | D 2.2 | M 1.55 | Y 1.31 | C 1.94 | E 2.11 | I 1.8 | V 2.01 | R 2.35
L6: T 2.13 | N 2.47 | R 2.3 | A 2 | I 1.8 | F 1.4 | Y 1.87 | E 2.76 | H 2.15 | D 3.28 | C 2.06 | W 1.66 | S 2.68 | K 3.1 | G 2.87 | V 2.2 | Q 3.27 | M 2.3
E5: K 2.22 | F 3.32 | D 1.89 | M 1.32 | C 1.1 | Y 2.68 | L 2.28 | R 1.47 | Q 1.71 | S 2.81 | N 1.97 | V 1.18 | P 2.17 | A 1.84 | H 2.82 | G 1.33
V1: E 2.83 | D 3.1 | H 2.21 | F 1.5 | W 1.79 | L 2.04 | R 1.99 | M 2 | Y 1.85 | I 1.2 | K 2.35 | A 1.66 | Q 2.19 | G 1.68 | S 2.4 | P 1.41 | T 1.71 | N 2.31 | C 1.96

Variants of: B2
Test: as above
Details: c terminus: a fixed tail appended

Protein stability index: each site, then its substitutions
H11: C 1.22 | A 3.06 | I 1.66
N24: T 2.42 | R 1.9
V10: Y 2.31 | D 4.04 | I 2.23 | Q 3.19
A2: V 1.45 | I 2.12 | M 3.23
Y1: A 4.8 | Q 4.64
F21: A 2.9 | M 2.85 | N 3.85 | Q 3.08 | T 3.37
G9: C 2.05 | M 3.23 | V 2.98 | R 2.31 | T 2.9 | I 1.49 | H 2.65 | S 2.63
D18: K 2.54 | T 2.13 | H 2.11 | Y 2.14 | Q 2.65
E7: V 1.93 | R 1.44 | M 2.02
N4: Q 3.69 | I 2.53 | F 1.75
L17: H 4.06 | K 3.24
H23: Q 2.22 | A 2.18 | D 2.58 | S 2.19
L5: T 2.84 | F 2.02
A13: K 2.96
D22: E 2.48 | Q 2.2 | P 2.47 | V 1.27 | H 1.84
E19: F 1.61 | P 1.6 | R 2.06 | K 1.5 | S 1.54 | T 2.68
L14: M 3.07 | F 1.81
L15: R 2.8
N20: Q 1.86 | P 2.63 | V 2.42
S8: L 1.97 | V 2.48 | K 2.67
H6: V 2.5 | S 2.27 | M 2.09
G12: N 3.68 | P 2.11 | M 2.59
A16: H 3.25 | Y 2.06
